# Assay results as given in patent US20050260657A1.
# Tests used:
# [1] = target: endogenous IP3R1 of HeLa cells (UniProt Q14643); experiment: cell-based or functional assay
# [2] = target: IP3R1 (inositol 1,4,5-trisphosphate receptor type 1), untagged, expressed in cells (mouse) (UniProt P11881); experiment: cell-based or functional assay
# endogenous IP3R1 of HeLa cells, sequence (Q14643 whole entry): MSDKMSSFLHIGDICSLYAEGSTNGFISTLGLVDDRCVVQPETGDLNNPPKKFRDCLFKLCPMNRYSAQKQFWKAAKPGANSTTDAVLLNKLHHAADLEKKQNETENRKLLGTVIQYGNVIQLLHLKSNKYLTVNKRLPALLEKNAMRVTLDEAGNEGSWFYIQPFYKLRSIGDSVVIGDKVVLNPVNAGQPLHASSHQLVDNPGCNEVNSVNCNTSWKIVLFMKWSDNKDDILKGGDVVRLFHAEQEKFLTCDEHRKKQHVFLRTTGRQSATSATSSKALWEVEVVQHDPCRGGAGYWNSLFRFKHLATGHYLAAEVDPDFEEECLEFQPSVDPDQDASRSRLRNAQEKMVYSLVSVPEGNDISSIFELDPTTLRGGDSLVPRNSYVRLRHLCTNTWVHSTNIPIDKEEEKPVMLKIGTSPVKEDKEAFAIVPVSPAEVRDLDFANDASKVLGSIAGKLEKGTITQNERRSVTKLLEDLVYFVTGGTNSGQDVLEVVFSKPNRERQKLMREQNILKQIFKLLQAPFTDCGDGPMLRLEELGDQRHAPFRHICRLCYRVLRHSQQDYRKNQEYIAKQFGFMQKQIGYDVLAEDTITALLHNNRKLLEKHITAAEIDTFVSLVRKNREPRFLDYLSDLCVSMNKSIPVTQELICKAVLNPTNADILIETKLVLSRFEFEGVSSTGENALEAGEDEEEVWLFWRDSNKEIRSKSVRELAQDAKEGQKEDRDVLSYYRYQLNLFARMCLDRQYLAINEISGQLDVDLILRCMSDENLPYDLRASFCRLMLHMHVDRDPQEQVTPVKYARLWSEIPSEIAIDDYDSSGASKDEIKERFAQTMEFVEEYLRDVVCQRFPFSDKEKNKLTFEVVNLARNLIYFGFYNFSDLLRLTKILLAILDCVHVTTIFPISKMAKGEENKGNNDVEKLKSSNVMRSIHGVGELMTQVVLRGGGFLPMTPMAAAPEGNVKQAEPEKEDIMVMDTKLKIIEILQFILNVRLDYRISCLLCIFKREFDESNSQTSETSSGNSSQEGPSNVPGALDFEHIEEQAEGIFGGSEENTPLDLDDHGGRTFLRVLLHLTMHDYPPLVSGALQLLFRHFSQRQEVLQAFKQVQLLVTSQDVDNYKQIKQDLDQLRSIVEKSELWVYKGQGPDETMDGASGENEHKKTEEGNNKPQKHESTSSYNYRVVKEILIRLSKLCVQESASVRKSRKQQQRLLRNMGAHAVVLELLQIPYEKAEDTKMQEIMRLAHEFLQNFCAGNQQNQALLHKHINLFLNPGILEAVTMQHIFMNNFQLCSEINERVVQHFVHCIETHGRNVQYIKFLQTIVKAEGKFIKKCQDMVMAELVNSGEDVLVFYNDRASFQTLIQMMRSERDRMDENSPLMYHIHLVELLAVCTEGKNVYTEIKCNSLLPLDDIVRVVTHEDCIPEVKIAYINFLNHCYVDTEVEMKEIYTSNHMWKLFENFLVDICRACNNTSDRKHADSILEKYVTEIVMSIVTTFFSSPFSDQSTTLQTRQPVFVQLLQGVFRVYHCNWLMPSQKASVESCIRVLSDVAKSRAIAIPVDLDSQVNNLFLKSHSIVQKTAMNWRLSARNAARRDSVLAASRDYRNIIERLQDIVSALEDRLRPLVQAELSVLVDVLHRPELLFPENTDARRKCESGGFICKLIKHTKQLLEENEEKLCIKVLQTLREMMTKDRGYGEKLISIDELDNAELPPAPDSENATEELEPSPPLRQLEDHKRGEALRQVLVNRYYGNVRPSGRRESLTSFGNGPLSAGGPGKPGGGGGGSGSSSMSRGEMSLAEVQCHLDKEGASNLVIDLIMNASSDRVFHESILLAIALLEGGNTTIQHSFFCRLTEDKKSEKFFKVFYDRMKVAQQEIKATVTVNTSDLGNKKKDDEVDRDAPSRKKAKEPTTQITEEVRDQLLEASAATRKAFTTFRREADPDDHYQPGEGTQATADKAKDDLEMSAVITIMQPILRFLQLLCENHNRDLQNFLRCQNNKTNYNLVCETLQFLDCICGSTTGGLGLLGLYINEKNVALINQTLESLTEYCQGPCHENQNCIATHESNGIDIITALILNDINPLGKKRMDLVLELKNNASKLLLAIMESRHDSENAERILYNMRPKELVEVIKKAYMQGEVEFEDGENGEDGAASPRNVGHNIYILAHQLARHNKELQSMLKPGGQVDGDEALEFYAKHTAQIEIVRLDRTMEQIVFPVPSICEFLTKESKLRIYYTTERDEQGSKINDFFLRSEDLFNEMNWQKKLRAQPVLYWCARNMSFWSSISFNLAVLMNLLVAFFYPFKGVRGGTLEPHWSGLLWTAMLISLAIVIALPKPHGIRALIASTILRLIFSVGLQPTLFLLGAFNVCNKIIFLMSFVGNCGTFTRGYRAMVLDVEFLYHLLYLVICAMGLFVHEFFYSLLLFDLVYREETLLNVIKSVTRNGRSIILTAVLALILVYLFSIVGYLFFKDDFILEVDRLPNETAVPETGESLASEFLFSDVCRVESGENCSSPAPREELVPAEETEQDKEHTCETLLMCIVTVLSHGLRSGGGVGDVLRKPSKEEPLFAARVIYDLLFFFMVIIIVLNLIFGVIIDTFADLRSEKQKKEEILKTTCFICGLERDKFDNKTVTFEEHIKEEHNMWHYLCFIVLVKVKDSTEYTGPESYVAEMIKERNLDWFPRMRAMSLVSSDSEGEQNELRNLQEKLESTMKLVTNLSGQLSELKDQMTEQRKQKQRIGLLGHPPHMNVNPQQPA
"peak amplitude of ATP-induced Ca2+ transient in HeLa cells, percent of non-transfected cells [1]","peak amplitude of BCR-induced Ca2+ release in DT40-KMN60 cells, percent of non-transfected cells [2]",Ca2+ response in siERp44-3U-pretreated HeLa cells compared with RFP-RDEL-transfected cells [1],Substance
69.3%,60.6%,,RFP-ERp44 (red fluorescent protein-tagged ERp44) (from UniProt Q9D1Q6 30-406)
,,77.1%,RFP-ERp44-C58S (from UniProt Q9D1Q6 30-406)
